The source of these data is patent US12668636B2, “Pharmaceutical combinations” (BERLIN-CHEMIE AG, priority 2017, dated 2026).

In one test the target is T1, LY75 (Homo sapiens, UniProt O60449).
T1 construct: from tissue; host or cells: FFPE triple negative breast cancer sections
Kind of test: Immunohistochemistry using monoclonal antibody to LY75. The settings on record: FFPE Triple Negative breast cancer samples. The method, then:
FFPE slides were deparaffinised in xylene (2×3 minutes) then rehydrated through 1:1 xylene: 100% ethanol (1×3 minutes), 100% ethanol (2×3 minutes), 95% ethanol (1×3 minutes), 70% ethanol (1×3 minutes), 50% ethanol (1×3 minutes), and tap water (1×3 minutes).
The LY75 antigen was retrieved using microwave heat, high power until boiling then low power for 10 minutes in 50 mL 1× citrate buffer in a Coplin jar. Slides were then left to cool to room temperature for a further 15 min, then washed in tap water, 3 minutes. Circles were drawn around each tissue section/TMA with a hydrophobic barrier pen and slides were then washed 3 times in PBS, 3 minutes each wash.
The primary anti-LY75 antibody was diluted in serum free protein block (SFPB) to obtain a solution with a concentration 20-fold greater than the final desired concentration (20 μg/mL for 1 μg/mL final). The secondary antibody, goat anti-human immunoglobulin G (IgG) antigen-binding fragment (Fab), was prepared similarly in SFPB to create a solution of equal concentration.
Equal volumes of primary and secondary antibodies were combined in a labelled tube, gently mixed, and incubated for 3 minutes at room temperature, resulting in a primary antibody concentration 10-fold greater than the desired final concentration (10 μg/mL for 1 μg/mL final). […]

The target in a further test is T2, LY75 on COLO205 cells (Homo sapiens, UniProt O60449).
T2 construct: COLO205 cells (ATCC, catalog #CCL-222) were detached from tissue culture flasks; host or cells: COLO205
Kind of test: Competitive FACS binding analysis. The settings on record: blocking antibody from 250 nM, 3 fold serial dilution, conjugate 1 nM (FIG. 5b). The method, then: COLO205 cells (ATCC, catalog #CCL-222) were detached from tissue culture flasks with Cell Stripper (Cellgro, catalog #MT-25-056CI). Cells were washed and resuspended in FACS buffer (PBS+2% FBS), neutralized with growth media, and counted. Cells were plated at 50,000 cells per well in a V Bottom 96-well plate. Cells were washed once with FACS buffer (PBS (Fisher, catalog #SH30028-03)+2% FBS). An anti-LY75-mAb (Selected from Example 1) or LY75_A1 was added to wells starting at 250 nM and diluted serially 3 fold and applied to the relevant wells for 45 minutes on ice. Test wells that required single or multiple staining steps were left in FACS buffer as appropriate to ensure the final staining was completed simultaneously for all conditions tested. Two wells were left unstained in FACS buffer as controls.
After the incubation with blocking antibody, cells were washed twice in FACS buffer. The cells were resuspended in FACS buffer containing the anti-LY75-mAb conjugated to MCC-DM1 (1 nM) and incubated on ice for 45 minutes. The cells were washed as above and resuspended in FACS buffer plus 1 ug/ml mouse anti-maytansine antibody and incubated in ice for 45 minutes. […] Mean fluorescence intensity of each sample was determined using a Guava EasyCyte Plus HT Flow Cytometer (96 well plate formats) and the raw data was analyzed using the Guava Cytosoft.

Test [1] has as its system Contiguous 8mer peptides of LY75 protein. Kind of test: Peptide microarray epitope characterization. The class given is binding. The settings on record: 1 μg/mL LY75_A1, scale 1-65535. The protocol:
The peptide microarray analysis was performed by LC Sciences, Houston TX, in brief the method comprised the following steps:—Contiguous 8mer peptides of LY75 protein having one amino acid overlap spanning residues 216 to 1666 of the full length LY75 protein were synthesized and immobilized on a microarray chip. The chip comprised three panels such that the experiment was performed in triplicate. The microarray was addressed with LY75_A1 to identify the peptides to which the antibody bound. The binding assay was performed under the following conditions:—
The microarray comprising the contiguous peptides in triplicate was washed with 1 mL of binding buffer at 4° C. for 20 min. It was then incubated with 1 μg/mL LY75_A1 in binding buffer (pH 7.0) at 4° C. for 2 hrs. The array was again washed with 0.5 mL of washing buffer at 4° C. for 30 min then incubated with 25 ng/ml anti-human IgG Alexa 647 conjugate in binding buffer (pH 7.0) at 4° C. for 1 hr. The array was again washed with 0.5 mL of washing buffer at 4° C. for 30 min. The array was then Scanned at 635 nm and PMT 500 and the signal Intensity was recorded. The peptide was classed as detectable if it was present in at least ⅔ legal duplicates. The average signal intensity of the replicates was reported as the final signal intensity. Results

T1 sequence (O60449 28-1722): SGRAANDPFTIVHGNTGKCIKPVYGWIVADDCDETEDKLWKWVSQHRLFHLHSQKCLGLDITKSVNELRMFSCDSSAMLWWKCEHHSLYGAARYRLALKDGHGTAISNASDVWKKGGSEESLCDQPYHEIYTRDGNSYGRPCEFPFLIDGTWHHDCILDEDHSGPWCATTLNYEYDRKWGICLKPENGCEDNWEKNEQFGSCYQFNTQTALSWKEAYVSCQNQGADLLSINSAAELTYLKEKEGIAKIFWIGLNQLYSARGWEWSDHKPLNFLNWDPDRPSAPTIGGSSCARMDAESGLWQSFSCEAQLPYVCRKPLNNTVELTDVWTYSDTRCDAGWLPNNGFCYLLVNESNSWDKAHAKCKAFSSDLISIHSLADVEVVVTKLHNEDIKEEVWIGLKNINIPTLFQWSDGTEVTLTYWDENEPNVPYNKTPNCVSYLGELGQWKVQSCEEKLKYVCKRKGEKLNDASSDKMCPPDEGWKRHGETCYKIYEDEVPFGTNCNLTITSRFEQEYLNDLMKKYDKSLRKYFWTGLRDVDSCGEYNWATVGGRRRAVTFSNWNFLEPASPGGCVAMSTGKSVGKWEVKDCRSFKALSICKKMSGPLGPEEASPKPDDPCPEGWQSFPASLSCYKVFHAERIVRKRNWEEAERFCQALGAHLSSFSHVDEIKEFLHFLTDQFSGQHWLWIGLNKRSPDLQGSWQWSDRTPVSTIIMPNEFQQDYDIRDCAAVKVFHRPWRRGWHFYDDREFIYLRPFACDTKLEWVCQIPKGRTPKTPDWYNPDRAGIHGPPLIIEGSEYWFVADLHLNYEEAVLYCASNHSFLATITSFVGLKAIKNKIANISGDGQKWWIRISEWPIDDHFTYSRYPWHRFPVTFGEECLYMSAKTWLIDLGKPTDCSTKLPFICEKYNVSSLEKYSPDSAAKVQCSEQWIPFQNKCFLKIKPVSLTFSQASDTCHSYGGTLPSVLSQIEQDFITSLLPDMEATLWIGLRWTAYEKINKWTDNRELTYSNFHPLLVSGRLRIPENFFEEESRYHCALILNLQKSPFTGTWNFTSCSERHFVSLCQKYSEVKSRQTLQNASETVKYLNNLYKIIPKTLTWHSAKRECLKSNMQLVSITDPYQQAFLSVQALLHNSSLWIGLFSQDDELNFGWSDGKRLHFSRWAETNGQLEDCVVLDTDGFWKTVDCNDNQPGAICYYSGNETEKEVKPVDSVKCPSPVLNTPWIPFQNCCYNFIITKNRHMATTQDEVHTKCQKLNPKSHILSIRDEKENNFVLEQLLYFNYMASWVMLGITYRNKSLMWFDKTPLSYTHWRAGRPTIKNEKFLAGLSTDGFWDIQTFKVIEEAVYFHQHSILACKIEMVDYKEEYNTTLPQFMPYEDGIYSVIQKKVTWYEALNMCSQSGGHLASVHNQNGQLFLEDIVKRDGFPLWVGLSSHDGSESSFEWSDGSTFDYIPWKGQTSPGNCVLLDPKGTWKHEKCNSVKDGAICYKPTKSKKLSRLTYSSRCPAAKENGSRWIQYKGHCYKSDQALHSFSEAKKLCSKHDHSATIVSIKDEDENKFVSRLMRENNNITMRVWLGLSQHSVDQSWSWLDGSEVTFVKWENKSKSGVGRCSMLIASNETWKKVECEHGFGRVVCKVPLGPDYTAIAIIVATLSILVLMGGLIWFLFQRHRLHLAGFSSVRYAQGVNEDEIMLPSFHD
T2 sequence (O60449 28-1722): as above

B1: LY75_A1: anti-LY75 human monoclonal antibody; VH SEQ ID NO:1, VL SEQ ID NO:2 (antibody, listed as Homo sapiens, V domains shown)
VH: EVQLVESGGGLVKPGGSLRLSCAASGFTYSNAWMSWVRQAPGKGLEWVGRIKSKTDGGTTDYAAPVQGRFTISRDDSKNTLYLQMNSLKTEDTAVYYCTIFGVVSFDYWGQGTLVTVSS
VL: DVQMTQSPSSLSASVGDRVTITCRASQSISDYLSWYQQRPGKAPNLLIYAASNLKTGVPSRFSGSGSGTDFTLTISTLQPEDFATYYCQQSYRSPWTFGQGTKVEIKR
In the case of B1, in the test with LY75, the “sections exhibiting robust (+++) staining” value is on record as 55% and the “sections showing positive staining” value was found to be 77%. Besides, the “blocking of binding of anti-LY75-mAb-MCC-DM1” value with LY75 on COLO205 cells is given as “unable to block binding of anti-LY75-mAb-MCC-DM1”. Also, the “average signal for all spots on the array” value in test [1] was “about 885”. Besides, the “maximum signal seen for binding” value in test [1] (background cut off 3000) is 25000.
